In test [1] the target is T1, human CD133 protein (coated on ELISA wells) (human) (UniProt O43490).
T1 sequence: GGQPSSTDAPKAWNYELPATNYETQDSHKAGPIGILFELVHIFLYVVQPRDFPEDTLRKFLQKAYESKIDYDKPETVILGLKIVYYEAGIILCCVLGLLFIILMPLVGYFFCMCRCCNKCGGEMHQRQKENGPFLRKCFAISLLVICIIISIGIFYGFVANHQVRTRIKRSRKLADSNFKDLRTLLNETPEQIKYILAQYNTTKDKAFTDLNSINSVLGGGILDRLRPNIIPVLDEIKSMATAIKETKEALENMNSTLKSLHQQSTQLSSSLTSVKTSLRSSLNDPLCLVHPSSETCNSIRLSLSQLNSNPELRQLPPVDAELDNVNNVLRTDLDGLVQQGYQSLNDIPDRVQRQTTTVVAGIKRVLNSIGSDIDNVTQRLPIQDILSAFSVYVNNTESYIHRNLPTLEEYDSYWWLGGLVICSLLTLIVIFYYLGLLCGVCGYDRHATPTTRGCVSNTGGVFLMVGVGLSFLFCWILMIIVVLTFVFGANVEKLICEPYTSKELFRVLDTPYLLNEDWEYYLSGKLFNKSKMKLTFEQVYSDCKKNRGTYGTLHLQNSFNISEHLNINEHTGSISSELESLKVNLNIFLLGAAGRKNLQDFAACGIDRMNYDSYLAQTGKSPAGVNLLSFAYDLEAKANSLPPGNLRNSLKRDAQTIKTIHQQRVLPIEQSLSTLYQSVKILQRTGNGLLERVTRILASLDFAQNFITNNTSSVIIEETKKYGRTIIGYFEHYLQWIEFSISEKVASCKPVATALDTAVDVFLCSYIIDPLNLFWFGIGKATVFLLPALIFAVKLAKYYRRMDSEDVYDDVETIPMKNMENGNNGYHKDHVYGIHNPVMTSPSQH
Description: ELISA.

The target in test [2] is human CD133 on Caco-2 cells (Homo sapiens, endogenous in Caco-2, UniProt O43490). As to the kind of experiment: flow cytometry on cells. In general terms: Flow cytometry measures light scatter and fluorescence of single cells or particles in a stream.

B1: anti-CD133 scFv clone 11, HA-tagged, secreted into bacterial culture supernatant (scFv, V domains shown)
VH: EVKLVESGPELKKPGETVKISCKASGYTFTDYSMHWVNQAPGKGLKWMGWINTETGEPSYADDFKGRFAFSLETSASTAYLQINNLKNEDTATYFCATDYGDYFDYWGQGTTLTVSS
VL: DIVLSQSPAIMSASPGEKVTISCSASSSVSYMYWYQQKPGSSPKPWIYRTSNLASGVPARFSGSGSGTSYSLTISSMEAEDAATYYCQQYHSYPPTFGAGTKLELK
On to B1, for which the absorbance at 450 nm in test [1] amounted to 0.9 AU.

B2: anti-CD133 scFv (clone 11) without HA epitope tag, FITC-labelled (scFv, V domains shown)
VH: B1 VH
VL: B1 VL
For the molecule B2, the binding result in test [2] is listed as “binds”.

The record behind these values is paper PMC5527709 (Drug delivery and translational research, 2013).
